Assay results from paper PMC3509434.

Legend:
[1] = target: soluble gB truncated at amino acid 730, gB(730t) (herpes simplex virus 1 (HSV-1)) (UniProt P06437); test: SEC
[2] = target: soluble gB truncated at amino acid 739, gB(739t) (herpes simplex virus 1 (HSV-1), strain KOS) (UniProt P06437); test: native gel or EMSA
[3] = target: soluble gB truncated at amino acid 739, gB(739t) (herpes simplex virus 1 (HSV-1), strain KOS) (UniProt P06437); test: SEC
[4] = target: soluble gB truncated at amino acid 749, gB(749t) (herpes simplex virus 1 (HSV-1), strain KOS) (UniProt P06437); test: native gel or EMSA
[5] = target: soluble gB truncated at amino acid 749, gB(749t) (herpes simplex virus 1 (HSV-1), strain KOS) (UniProt P06437); test: SEC
[6] = target: soluble gB truncated at amino acid 759, gB(759t) (herpes simplex virus 1 (HSV-1), strain KOS) (UniProt P06437); test: native gel or EMSA
[7] = target: soluble gB truncated at amino acid 759, gB(759t) (herpes simplex virus 1 (HSV-1), strain KOS) (UniProt P06437); test: SEC
[8] = target: soluble gB truncated at amino acid 773, gB(773t) (herpes simplex virus 1 (HSV-1), strain KOS) (UniProt P06437); test: native gel or EMSA
[9] = target: soluble gB truncated at amino acid 773, gB(773t) (herpes simplex virus 1 (HSV-1), strain KOS) (UniProt P06437); test: SEC

In the case of “soluble gB truncated at amino acid 730, gB(730t) (from UniProt P06437 31-730) (domain or fragment)”, the stoichiometry N [1] is reported as 3.

“soluble gB truncated at amino acid 739, gB(739t) (from UniProt P06437 31-739) (domain or fragment)” was tested, and the stoichiometry N [2] was 3 and the stoichiometry N [3] was 3.

Substance “soluble gB truncated at amino acid 749, gB(749t) (from UniProt P06437 31-749) (domain or fragment)” has a stoichiometry N [4] of 3 and a stoichiometry N [5] of 3.

In the case of “soluble gB truncated at amino acid 759, gB(759t) (from UniProt P06437 31-759) (domain or fragment)”, the stoichiometry N [6] is reported as 3 and the stoichiometry N [7] is reported as 3.

Substance “soluble gB truncated at amino acid 773, gB(773t) (from UniProt P06437 31-773) (domain or fragment)” has a stoichiometry N [8] of 3 and a stoichiometry N [9] of 3.
